US20200123266A1 (Memorial Sloan Kettering, published 2020)
Ends that are not written are not given here. * marks the point of attachment. Biotin = O=C1N[C@H]2[C@H](CS[C@H]2CCCCC(=O)*)N1

Assays:
ET140-p25 = biological target: T1, ET140-p25 (human, cysteine pairing not given here); assay: peptide ELISA, biotin peptide on streptavidin plate, antibody 1 ug/mL
T1 construct: also called peptide 25
T1 peptide: Biotin-SGSGLRCSSNTPPLTCQRY
Method: (§1) The peptides were coated onto Streptavidin plates at 2 ug/mL in PBST (PBS+0.05% Tween-20). After washing and blocking with 3% BSA. After washing, 1 ug/mL ET140-3, ET140-24, ET140-54 or ET901 mIgG1 was added to the wells, respectively. “mIgG1” used in all Examples represents that the variable region is fully human and the Fc part is mouse IgG1. Then HRP anti-mouse IgG detection antibody was added to each well. Finally, the color was developed using TMB substrate. A450 was recorded for data analysis.

ET140-p26 = biological target: T2, ET140-p26 (human, cysteine pairing not given here); assay: as above
T2 construct: also called peptide 26
T2 peptide: Biotin-SGSGRCSSNTPPLTCQRYC
Method: as §1

- A450 (ET140-p25): 0.583
- A450 (ET140-p26): 0.225
B1: ET140-153 mIgG1 (antibody, V domains shown)
VH: QVQLVQSGAEVKKPGSSVKVSCKASGGTFSSYAISWVRQAPGQGLEWMGRIIPILGIANYAQKFQGRVTITADKSTSTAYMELSSLRSEDTAVYYCARGGYYSHDMWSEDWGQGTLVTVSS
VL: LPVLTQPPSASGTPGQRVTISCSGRSSNIGSNSVNWYRQLPGAAPKLLIYSNNQRPPGVPVRFSGSKSGTSASLAISGLQSEDEATYYCATWDDNLNVHYVFGTGTKVTVLG
notes: also called ET140-3 mIgG1; ET140-3
